Measured values taken from US20230136331A1 (ILDONG PHARMACEUTICAL, published 2023).

Target: T1, human TIGIT (human, UniProt Q495A1 22-141)
T1 construct: also called hTIGIT
T1 sequence (looked up): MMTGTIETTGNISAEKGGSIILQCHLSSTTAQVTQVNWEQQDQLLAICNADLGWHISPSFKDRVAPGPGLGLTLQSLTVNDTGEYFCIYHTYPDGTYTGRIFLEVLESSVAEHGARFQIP
Test: SPR, captured by anti-human Fc, hTIGIT analyte
Excerpt: The sensorgrams for reference channel Fc1 and buffer channel were subtracted from the test sensorgrams.

Kd: 0.0595 nM
B1: Tiragolumab (antibody, human IgG1, kappa, V domains shown)
VH: EVQLQQSGPGLVKPSQTLSLTCAISGDSVSSNSAAWNWIRQSPSRGLEWLGKTYYRFKWYSDYAVSVKGRITINPDTSKNQFSLQLNSVTPEDTAVFYCTRESTTYDLLAGPFDYWGQGTLVTVSS
VL: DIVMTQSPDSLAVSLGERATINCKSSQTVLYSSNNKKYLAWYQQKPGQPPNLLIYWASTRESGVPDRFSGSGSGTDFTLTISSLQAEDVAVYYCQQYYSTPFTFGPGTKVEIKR
notes: also called anti-TIGIT antibody; control antibody
